Read-outs that look alike come from different tables or passages of the source.
Columns and labels:
[1] = target: T1, RBD of the SARS-CoV-2 spike protein, Gamma (P.1) variant (SARS-CoV-2 (Gamma variant), UniProt P0DTC2 319-541); experiment: ELISA, plate coated with RBD at 2 µg/ml, anti-human IgG-HRP detection
T1 construct: domain: RBD

[2] = target: T2, RBD of the SARS-CoV-2 spike protein, Beta (B.1.351) variant (SARS-CoV-2 (Beta variant), UniProt P0DTC2 319-541); experiment: as above
T2 construct: domain: RBD

[3] = target: T3, RBD of the SARS-CoV-2 spike protein, Delta (B.1.617.2) variant (SARS-CoV-2 (Delta variant), UniProt P0DTC2 319-541); experiment: as above
T3 construct: domain: RBD

[4] = target: T4, SARS-CoV-2 spike protein, Gamma (P.1) variant, on pseudovirus (SARS-CoV-2 (Gamma variant)); experiment: cell-based or functional assay
[5] = target: T5, SARS-CoV-2 spike protein, Alpha (B.1.1.7) variant, on pseudovirus (SARS-CoV-2 (Alpha variant)); experiment: cell-based or functional assay
[6] = target: T6, SARS-CoV-2 spike protein, Delta (B.1.617.2) variant, on pseudovirus (SARS-CoV-2 (Delta variant)); experiment: cell-based or functional assay
[7] = target: SARS-CoV-2 spike protein, Mu (B.1.621) variant, on pseudovirus (SARS-CoV-2 (Mu variant)); experiment: cell-based or functional assay
[8] = target: T7, SARS-CoV-2 spike protein, Beta (B.1.351) variant, on pseudovirus (SARS-CoV-2 (Beta variant)); experiment: cell-based or functional assay
[9] = target: T8, SARS-CoV-2 spike protein, Omicron BA.2 variant, on pseudovirus (SARS-CoV-2 (Omicron BA.2 variant)); experiment: cell-based or functional assay
[10] = target: T4, SARS-CoV-2 spike protein, Gamma (P.1) …; experiment: cell-based or functional assay; remark: listed apart in the source
[11] = target: T5, SARS-CoV-2 spike protein, Alpha …; experiment: cell-based or functional assay; remark: listed apart in the source
[12] = target: T8, SARS-CoV-2 spike protein, Omicron BA.2 …; experiment: cell-based or functional assay; remark: listed apart in the source
[13] = target: T6, SARS-CoV-2 spike protein, Delta …; experiment: cell-based or functional assay; remark: listed apart in the source
[14] = target: T7, SARS-CoV-2 spike protein, Beta …; experiment: cell-based or functional assay; remark: listed apart in the source
[15] = target: SARS-CoV-2 spike protein, Omicron BA.4/BA.5 variants, on pseudovirus (SARS-CoV-2 (Omicron BA.4/BA.5 variants)); experiment: cell-based or functional assay

B1: mAb17T2 (antibody, V domains shown)
VH: QVQLVQSGPEVKKPGTSVKVSCKAPVFTFSISAVQWVRQARGQRLEWIGWIVVGSGNTNYAQNFQERVTITTDMSTGTVYMELSGLRSEDTAMYYCAAPYCNRTTCYDGFDLWGQGTMVTVSS
VL: EIVLTQSPGTLSLSPGERATLSCRASQSISSNYLAWYQQKPGQAPRLLIYGASSRATGIPDRFSGSGSGTDFTLSINRLEPEDFAMYYCQHYGGLSRWTFGQGTKVEIKR
- EC50 [1]: 3.08 ng/mL
- EC50 [2]: 3.76 ng/mL
- EC50 [3]: 3.38 ng/mL
- IC50 (µg/ml), pseudotyped virus neutralization [4]: 0.0126 µg/mL
- IC80 (µg/ml), pseudotyped virus neutralization [4]: 0.0218 µg/mL
- IC90 (µg/ml), pseudotyped virus neutralization [4]: 0.0302 µg/mL
- IC50 (µg/ml), pseudotyped virus neutralization [5]: 0.00666 µg/mL
- IC80 (µg/ml), pseudotyped virus neutralization [5]: 0.014 µg/mL
- IC90 (µg/ml), pseudotyped virus neutralization [5]: 0.0216 µg/mL
- IC50 (µg/ml), pseudotyped virus neutralization [6]: 0.0105 µg/mL
- IC80 (µg/ml), pseudotyped virus neutralization [6]: 0.0165 µg/mL
- IC90 (µg/ml), pseudotyped virus neutralization [6]: 0.0215 µg/mL
- IC50 (µg/ml), pseudotyped virus neutralization [7]: 0.00907 µg/mL
- IC80 (µg/ml), pseudotyped virus neutralization [7]: 0.014 µg/mL
- IC90 (µg/ml), pseudotyped virus neutralization [7]: 0.0181 µg/mL
- IC50 (µg/ml), pseudotyped virus neutralization [8]: 0.0022 µg/mL
- IC80 (µg/ml), pseudotyped virus neutralization [8]: 0.00481 µg/mL
- IC90 (µg/ml), pseudotyped virus neutralization [8]: 0.0076 µg/mL
- fold neutralizing activity compared to S2E12 [9]: 13.5 fold
- fold neutralizing activity compared to S309 [9]: 41 fold
- IC50 (µg/ml), pseudotyped virus neutralization [10]: 0.0083 µg/mL
- IC50 (µg/ml), pseudotyped virus neutralization [11]: 0.0069 µg/mL
- IC50 (µg/ml), pseudotyped virus neutralization [12]: 0.0101 µg/mL
- IC50 (µg/ml), pseudotyped virus neutralization [13]: 0.0096 µg/mL
- IC50 (µg/ml), pseudotyped virus neutralization [14]: 0.0027 µg/mL
- IC50 (µg/ml), pseudotyped virus neutralization [15]: 0.00203 µg/mL

— patent publication EP4349860A1 (Fundació Institut Hospital Del Mar D'Investigacions …, dated 2024)
